In paper PMC11937253 (2025):
Read-outs that look alike come from different tables or passages of the source.

B1: recombinant MPXV [change] protein (ectodomain, His-tagged) (domain or fragment)
chain: MGAAASIQTTVNTLSERISSKLEQEANASAQTKCDIEIGNFYIRQNHGCNITVKNMCSADADAQLDAVLSAATETYSGLTPEQKAYVPAMFTAALNIQTSVNTVVRDFENYVKQTCNSSAVVDNKLKIQNVIIDECYGAPGSPTNLEFINTGSSKGNCAIKALMQLTTKATTQIAPRQVAG
B2: nanobody M1R-01 (monovalent) (VHH)
VHH: QVQLVESGGGLVQAGGSLRLSCAASGFIFHNFDMGWYRQAPGKEREFVAAISDNGRSTYYADSVKGRFTISRDNAKNTVYLQMNSLKPEDTAVYYCAVAWLSIPDLAEWYDYWGQGTQVTVSS

Assays:
Experiment in all cases: SPR
7D11 = target: 7D11
[1] = target: T1, recombinant MPXV [change] protein (ectodomain, His-tagged) (mpox virus (MPXV), isolate …)
[2] = target: T1, recombinant MPXV [change] protein …; remark: listed apart in the source

Row | Binder | Kd (7D11) [nM] | Kd [1] [nM] | Kd [2] [nM]
1 | B1 | 0.0198 |  | 
2 | B2 |  | 40.4 | 40
